In data set [1] the target is T1, human GLP-1 receptor (Homo sapiens, UniProt P43220).
T1 construct: expressed in transfected cells; host or cells: membranes from BHK cells, parent line BHKTS13, clone FCW467-12A
The experiment in a line: GLP-1 receptor binding, competitive 125I-GLP-1 SPA binding assay on isolated membranes. Particulars: IC50/nM (low HSA), low HSA (max. 0.001% final assay concentration).

Data set [2] in a line: Pharmacokinetic study in mini pigs after i.v. administration. It counts as in vivo. As to conditions: female, Göttingen, pig, plasma, iv, 2 nmol/kg; read-out: Minipig iv PK, t½ (converted).
Experimental: The purpose of this study is to determine the protraction in vivo of the GLP-1 derivatives after i.v. administration to mini pigs, i.e. the prolongation of their time in the body and thereby their time of action. This was done in pharmacokinetic (PK) studies, where the terminal half-life of the derivative in question was determined. By terminal half-life is generally meant the period of time it takes to halve a certain plasma concentration, measured after the initial distribution phase.
Female Göttingen mini pigs obtained from Ellegaard Göttingen Minipigs (Dalmose, Denmark) at approximately 5 months of age and weighing approximately 10 kg were used in the studies. The mini pigs were housed in pens with straw as bedding, four to six together in each pen and fed restrictedly once or twice daily with Altromin 9023 mini pig diet (Chr. Petersen A/S, DK-4100 Ringsted). The pigs were used for repeated pharmacokinetic studies with a suitable wash-out period between successive GLP-1 derivative dosings. An acclimatisation period of 1 week was allowed during which time the mini pigs were trained to be fixated on the back for blood sampling and in slings for i.v. dosing. All handling, dosing and blood sampling of the animals was performed by trained and skilled staff.
The GLP-1 derivatives were dissolved in 50 mM sodium phosphate, 70 mM sodium chloride, 0.05% tween 80, pH 7.4 to a concentration of approximately 20 nmol/ml. Intravenous injections (the volume corresponding to usually 2 nmol/kg, for example 0.1 ml/kg) of the compounds were given as intravenous injections via a Venflon inserted in an ear vein, while the animals were placed un-anaesthetised in a sling. The dose volume was 0.1 ml/kg, and blood was sampled at predefined time points for up till 13 days post dosing (samples were taken with a syringe from a jugular vein). Blood samples (for example 0.8 ml) were collected in EDTA buffer (8 mM) and then centrifuged at 4° C. and 2000 G for 10 minutes.
Individual plasma concentration-time profiles were analysed by a non-compartmental model in WinNonlin v. […] 6.2 or 6.3 (Pharsight Inc., Mountain View, Calif., USA), or other relevant software for PK analysis, and the resulting terminal half-lives determined.
Data set [3] addresses T1, human GLP-1 receptor. Put plainly: In vitro potency, CRE luciferase reporter gene assay in BHK cells expressing the human GLP-1 receptor.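 Also: firefly luciferase luminescence read after 3 h incubation at 37 °C, compounds tested in an eight-point series from 0.01 pM to 100 nM.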 It counts as cell-based. As to conditions: average of duplicates. In general terms: A reporter such as luciferase makes a cellular process visible.
Target sequence in this assay (P43220 24-463): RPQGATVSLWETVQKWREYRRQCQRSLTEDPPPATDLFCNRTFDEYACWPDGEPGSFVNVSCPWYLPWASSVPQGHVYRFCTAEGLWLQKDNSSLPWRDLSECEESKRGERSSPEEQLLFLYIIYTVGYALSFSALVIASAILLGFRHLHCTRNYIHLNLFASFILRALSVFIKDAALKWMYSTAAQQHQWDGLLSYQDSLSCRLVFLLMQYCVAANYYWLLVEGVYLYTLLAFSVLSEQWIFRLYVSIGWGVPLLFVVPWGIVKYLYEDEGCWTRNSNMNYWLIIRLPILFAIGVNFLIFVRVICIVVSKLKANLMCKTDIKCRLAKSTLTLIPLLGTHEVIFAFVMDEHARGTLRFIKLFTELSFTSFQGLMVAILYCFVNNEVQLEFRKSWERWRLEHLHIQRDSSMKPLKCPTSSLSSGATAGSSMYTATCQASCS
The target of data set [4] is T2, human GLP-1 receptor (human, UniProt P43220).
Target sequence in this assay (P43220 24-463): as above
For data set [5], the target named is T2, human GLP-1 receptor. The experiment in a line: displacement of [125I]-GLP-1-(7-36)NH2 from membranes with human GLP-1 receptor, SPA, high HSA (2.0%). In general terms: Displacement assays read how much labelled ligand stays bound in the presence of the test substance.
Experimental: Each derivative is added in a series of concentrations to isolated membranes containing the human GLP-1 receptor and displacement of the labelled ligand is monitored. The receptor binding is reported as the concentration at which half of the labelled ligand is displaced from the receptor, the $IC50$ value.
For the receptor binding assay in the presence of low HSA (0.001%) 50 μl of the assay buffer was added to each well of an assay plate. […] For the receptor binding assay in the presence of high HSA (2.0%) 50 μl of the 8% albumin stock was added to each well of an assay plate. […] Cell membrane aliquots were thawed and diluted to their working concentration. Fifty μl were added to each well in the assay plate. […] WGA SPA beads were suspended in assay buffer at 20 mg/ml. The suspension was diluted to 10 mg/ml in assay buffer just prior to addition to the assay plate. Fifty μl were added to each well in the assay plate. […] A 25 μl aliquot was reserved for measuring total counts/well. […] The assay plate was incubated for 2 h at 30° C. […] The assay plate was centrifuged for 10 min. […] The assay plate was read in a Packard TopCount NXT instrument.
Setting [6] is: EC50/pM (1% HSA), 1% HSA final assay concentration.

*1 amine or outer side, *2 acyl side, *3 side chain or, on linkers, in order; H or OH if unused. Where no end group is shown, it is not given here. Side-chain parts run from the residue outwards. [ ]: non-standard residue; d: D form. The star is where a group is joined. Dodecanoyl(12-OPh(4-COOH)) = O=C(O)c1ccc(OCCCCCCCCCCCC(=O)*)cc1; 9‑(3-carboxyphenoxy)nonanoyl = O=C(O)c1cccc(OCCCCCCCCC(=O)*)c1; Undecanoyl(11-OPh(4-COOH)) = O=C(O)c1ccc(OCCCCCCCCCCC(=O)*)cc1; Decanoyl(10-(4-HOOC-PhO)) = O=C(O)c1ccc(OCCCCCCCCCC(=O)*)cc1; Decanoyl(10-O(3-COOH-Ph)) = O=C(O)c1cccc(OCCCCCCCCCC(=O)*)c1; γGlu = O=C(O)[C@H](CCC(=O)[*:2])N[*:1]; C14 diacid = O=C(O)CCCCCCCCCCCCC(=O)*; AEEA = NCCOCCOCC(=O)O; Aib = CC(C)(N)C(=O)O

As a reminder, the IC50 is the midpoint of a concentration-inhibition curve. A word on the EC50: it is the midpoint of the concentration-response curve. High values mean weaker potency, low ones greater potency. On to `CC[C@H](C)[C@H](NC(=O)[C@H](Cc1ccccc1)NC(=O)[C@H](CCC(=O)O)NC(=O)[C@H](CCCNC(=N)N)NC(=O)[C@H](C)NC(=O)[C@H](C)NC(=O)[C@H](CCC(N)=O)NC(=O)[C@H](CCC(=O)O)NC(=O)[C@H](CCC(=O)O)NC(=O)[C@H](CC(C)C)NC(=O)[C@H](Cc1ccc(O)cc1)NC(=O)[C@H](CO)NC(=O)[C@H](CO)NC(=O)[C@@H](NC(=O)[C@H](CC(=O)O)NC(=O)[C@H](CO)NC(=O)[C@@H](NC(=O)[C@H](Cc1ccccc1)NC(=O)[C@@H](NC(=O)CNC(=O)[C@H](CCC(=O)O)NC(=O)C(C)(C)NC(=O)[C@@H](N)Cc1c[nH]cn1)[C@@H](C)O)[C@@H](C)O)C(C)C)C(=O)N[C@@H](C)C(=O)N[C@@H](Cc1c[nH]c2ccccc12)C(=O)N[C@@H](CC(C)C)C(=O)N[C@H](C(=O)N[C@@H](CCCNC(=N)N)C(=O)NCC(=O)N[C@@H](CCCCNC(=O)COCCOCCNC(=O)COCCOCCNC(=O)CC[C@H](NC(=O)CCCCCCCCCOc1ccc(C(=O)O)cc1)C(=O)O)C(=O)N[C@@H](CCCCNC(=O)COCCOCCNC(=O)COCCOCCNC(=O)CC[C@H](NC(=O)CCCCCCCCCOc1ccc(C(=O)O)cc1)C(=O)O)C(=O)O)C(C)C` [Example 3, N{Epsilon-36}-[2-[2-[2-[[2-[2-[2-[[(4S)-4-carboxy-4-[10-(4-carboxyphenoxy)decanoylamino]butanoyl]amino]ethoxy]ethoxy]acetyl]amino]ethoxy]ethoxy]acetyl], N{Epsilon-37}-[2-[2-[2-[[2-[2-[2-[[(4S)-4-carboxy-4-[10-(4-carboxyphenoxy)decanoylamino]butanoyl]amino]ethoxy]ethoxy]acetyl]amino]ethoxy]ethoxy]acetyl]-[Aib8,Glu22,Arg26,Arg34,Lys36,Lys37]-GLP-1-(7-37)-peptide], for which the IC50 in data set [1] stood at 0.19 nM. The half-life in data set [2] was 71 h. Moreover, the EC50 in data set [3] (EC50/pM (0% HSA), 0% HSA) amounted to 1.2 pM; in data set [3] (setting [6]), 28 pM.
Turning to `CC[C@H](C)[C@H](NC(=O)[C@H](Cc1ccccc1)NC(=O)[C@H](CCC(=O)O)NC(=O)[C@H](CCCNC(=N)N)NC(=O)[C@H](C)NC(=O)[C@H](C)NC(=O)[C@H](CCC(N)=O)NC(=O)[C@H](CCC(=O)O)NC(=O)[C@H](CCC(=O)O)NC(=O)[C@H](CC(C)C)NC(=O)[C@H](Cc1ccc(O)cc1)NC(=O)[C@H](CO)NC(=O)[C@H](CO)NC(=O)[C@@H](NC(=O)[C@H](CC(=O)O)NC(=O)[C@H](CO)NC(=O)[C@@H](NC(=O)[C@H](Cc1ccccc1)NC(=O)[C@@H](NC(=O)CNC(=O)[C@H](CCC(=O)O)NC(=O)C(C)(C)NC(=O)[C@@H](N)Cc1c[nH]cn1)[C@@H](C)O)[C@@H](C)O)C(C)C)C(=O)N[C@@H](C)C(=O)N[C@@H](Cc1c[nH]c2ccccc12)C(=O)N[C@@H](CC(C)C)C(=O)N[C@H](C(=O)N[C@@H](CCCNC(=N)N)C(=O)NCC(=O)N[C@@H](CCCCNC(=O)COCCOCCNC(=O)COCCOCCNC(=O)CC[C@H](NC(=O)CCCCCCCCOc1cccc(C(=O)O)c1)C(=O)O)C(=O)N[C@@H](CCCCNC(=O)COCCOCCNC(=O)COCCOCCNC(=O)CC[C@H](NC(=O)CCCCCCCCOc1cccc(C(=O)O)c1)C(=O)O)C(=O)O)C(C)C` [Example 23, N{Epsilon-36}-[2-[2-[2-[[2-[2-[2-[[(4S)-4-carboxy-4-[9-(3-carboxyphenoxy)nonanoylamino]butanoyl]amino]ethoxy]ethoxy]acetyl]amino]ethoxy]ethoxy]acetyl], N{Epsilon-37}-[2-[2-[2-[[2-[2-[2-[[(4S)-4-carboxy-4-[9-(3-carboxyphenoxy)nonanoylamino]butanoyl]amino]ethoxy]ethoxy]acetyl]amino]ethoxy]ethoxy]acetyl]-[Aib8,Glu22,Arg26,Arg34,Lys36,Lys37]-GLP-1-(7-37)-peptide], the IC50 in data set [1] is 0.29 nM. For the same molecule, the EC50 turned out to be 7.7 pM in data set [3] (EC50/pM (0% HSA), 0% HSA) and 15 pM in data set [3] (setting [6]).
For the molecule `CC[C@H](C)[C@H](NC(=O)[C@H](Cc1ccccc1)NC(=O)[C@H](CCC(=O)O)NC(=O)[C@H](CCCNC(=N)N)NC(=O)[C@H](C)NC(=O)[C@H](C)NC(=O)[C@H](CCC(N)=O)NC(=O)[C@H](CCC(=O)O)NC(=O)[C@H](CCC(=O)O)NC(=O)[C@H](CC(C)C)NC(=O)[C@H](Cc1ccc(O)cc1)NC(=O)[C@H](CO)NC(=O)[C@H](CO)NC(=O)[C@@H](NC(=O)[C@H](CC(=O)O)NC(=O)[C@H](CO)NC(=O)[C@@H](NC(=O)[C@H](Cc1ccccc1)NC(=O)[C@@H](NC(=O)CNC(=O)[C@H](CCC(=O)O)NC(=O)C(C)(C)NC(=O)[C@@H](N)Cc1c[nH]cn1)[C@@H](C)O)[C@@H](C)O)C(C)C)C(=O)N[C@@H](C)C(=O)N[C@@H](Cc1c[nH]c2ccccc12)C(=O)N[C@@H](CC(C)C)C(=O)N[C@H](C(=O)N[C@@H](CCCNC(=N)N)C(=O)NCC(=O)N[C@@H](CCCCNC(=O)COCCOCCNC(=O)COCCOCCNC(=O)CC[C@H](NC(=O)CCCCCCCCCCCOc1ccc(C(=O)O)cc1)C(=O)O)C(=O)N[C@@H](CCCCNC(=O)COCCOCCNC(=O)COCCOCCNC(=O)CC[C@H](NC(=O)CCCCCCCCCCCOc1ccc(C(=O)O)cc1)C(=O)O)C(=O)O)C(C)C` [Example 26, N{Epsilon-36}-[2-[2-[2-[[2-[2-[2-[[(4S)-4-carboxy-4-[12-(4-carboxyphenoxy)dodecanoylamino]butanoyl]amino]ethoxy]ethoxy]acetyl]amino]ethoxy]ethoxy]acetyl], N{Epsilon-37}-[2-[2-[2-[[2-[2-[2-[[(4S)-4-carboxy-4-[12-(4-carboxyphenoxy)dodecanoylamino]butanoyl]amino]ethoxy]ethoxy]acetyl]amino]ethoxy]ethoxy]acetyl]-[Aib8,Glu22,Arg26,Arg34,Lys36,Lys37]-GLP-1-(7-37)-peptide], in data set [1], the IC50 turned out to be 0.29 nM. Moreover, the EC50 in data set [3] (EC50/pM (0% HSA), 0% HSA) came to 1.5 pM; in data set [3] (setting [6]) it was 124 pM.
In data set [4], H[Aib]EGTFTSDVSSYLEEQAAREFIAWLVRGK([AEEA-AEEA-γGlu-Decanoyl(10-(4-HOOC-PhO))])K([AEEA-AEEA-γGlu-Decanoyl(10-(4-HOOC-PhO))]) [GLP-1 derivative of Example 3] registered an EC50/pM (0% HSA) of 1.2 pM and an EC50/pM (1% HSA) of 28 pM. Also, the IC50 in data set [5] worked out at 77 nM.
The like results for H[Aib]EGTFTSDVSSYLEEQAAREFIAWLVRGK([AEEA-AEEA-γGlu-9‑(3-carboxyphenoxy)nonanoyl])K([AEEA-AEEA-γGlu-9‑(3-carboxyphenoxy)nonanoyl]) [GLP-1 derivative of Example 23] were, in that order, 7.7 pM, 15 pM and 193 nM.
H[Aib]EGTFTSDVSSYLEEQAAREFIEWLVRGK([AEEA-AEEA-AEEA-AEEA-γGlu-Decanoyl(10-O(3-COOH-Ph))])K([AEEA-AEEA-AEEA-AEEA-γGlu-Decanoyl(10-O(3-COOH-Ph))]) [GLP-1 derivative of Example 28]: in data set [4], the EC50/pM (0% HSA) is 12 pM and the EC50/pM (1% HSA) worked out at 25 pM. The IC50 in data set [5] was 173 nM.
For H[Aib]EGTFTSDVSSYLEEQAAREFIAWLVRGK([AEEA-AEEA-AEEA-γGlu-C14 diacid])K([AEEA-AEEA-AEEA-γGlu-C14 diacid]) [GLP-1 derivative of Example 12], in data set [4], the EC50/pM (0% HSA) came to 1.2 pM and the EC50/pM (1% HSA) is 10 pM. The molecule also gave an IC50 in data set [5] of 70 nM.
Turning to H[Aib]EGTFTSDVSSYLEEQAAREFIAWLVRGK([AEEA-AEEA-γGlu-C14 diacid])K([AEEA-AEEA-γGlu-C14 diacid]) [GLP-1 derivative of Example 5], in data set [4], the EC50/pM (0% HSA) was found to be 1.1 pM and the EC50/pM (1% HSA) is 22 pM. Further, in data set [5], the IC50 amounted to 144 nM.
As to H[Aib]EGTFTSDVSSYLEEQAAREFIAWLVQGK([AEEA-AEEA-γGlu-Undecanoyl(11-OPh(4-COOH))])K([AEEA-AEEA-γGlu-Undecanoyl(11-OPh(4-COOH))]) [GLP-1 derivative of Example 7], in data set [4], the EC50/pM (0% HSA) amounted to 1.5 pM and the EC50/pM (1% HSA) worked out at 143 pM. This molecule registered an IC50 in data set [5] of 233 nM.
In data set [4], H[Aib]EGTFTSDVSSYLEEQAAREFIAWLVRGK([AEEA-AEEA-γGlu-Dodecanoyl(12-OPh(4-COOH))])K([AEEA-AEEA-γGlu-Dodecanoyl(12-OPh(4-COOH))]) [GLP-1 derivative of Example 26] yielded an EC50/pM (0% HSA) of 1.5 pM and an EC50/pM (1% HSA) of 124 pM. This molecule gave an IC50 in data set [5] of 360 nM.
For the molecule H[Aib]EGTFTSDVSSYLEEQAAREFIAWLVRGK([AEEA-γGlu-γGlu-C14 diacid])K([AEEA-γGlu-γGlu-C14 diacid]) [GLP-1 derivative of Example 13], in data set [4], the EC50/pM (0% HSA) is 1.3 pM and the EC50/pM (1% HSA) worked out at 18 pM. This molecule came in with a half-maximal inhibitory concentration (IC50) in data set [5] of 201 nM.

The record behind these values is patent publication US10689429B2, “Double-acylated GLP-1 compounds” (Novo Nordisk A/S, priority 2014, dated 2020).
